In patent publication US20230312742A1 (Y MABS THERAPEUTICS, published 2023):

Assays:
[1] = target: T1, CD38 on CD38(+) cancer cells (RPMI8226, Raji, Daudi) (UniProt P28907 1-300, limits assumed); assay: flow cytometry on RPMI 8226 cells, detection with an anti-his tag antibody
T1 construct: whole, on cells; Endogenous CD38 on tumour cell lines; also called CD38(+) tumor cells; CD38(+) Raji cells

[2] = target: T1, CD38 on CD38(+) cancer cells (RPMI8226, …); assay: flow cytometry on Raji cells, detection with an anti-his tag antibody
[3] = target: T2, human CD38 antigen (recombinant human CD38 protein) (human, UniProt P28907 43-300, limits assumed); assay: SPR, antibody captured on Protein-L chip, human CD38 in solution; murine antibody, not named
[4] = target: T2, human CD38 antigen (recombinant human …); assay: SPR, construct captured on immobilised protein-L (HC30M chip), human CD38 antigen flown over
[5] = target: T2, human CD38 antigen (recombinant human …); assay: SPR, antibody captured on Protein-L chip, human CD38 in solution
[6] = target: T2, human CD38 antigen (recombinant human …); assay: SPR, antibody captured on Protein-L chip, human CD38 in solution; humanized 8DC3
[7] = target: T2, human CD38 antigen (recombinant human …); assay: SPR, His-tagged SADA captured on NiHC200M chip, recombinant human CD38 in solution; average
[8] = target: T2, human CD38 antigen (recombinant human …); assay: SPR, His-tagged SADA construct captured on a NiHC200M chip, recombinant human CD38 protein injected

Binder	EC50 (read off the curve) [1]	EC50 (read off the curve) [2]	Kd [3]	koff [4]	kon [4]	Kd [5]	Kd [6]	Kd [7]	kon [7]	Kd [8]
8DC-1 (anti-CD38 scFv-(G4S)4-huC825 anti DOTA scFv-linker-P53-linker-His tag) (bispecific antibody, SADA construct with the murine AT13/5 VH and VL; also called the murine antibody) QVQLKQSGPGLVHPSQSLSITCTVSGFSLTSYGVHWVRQSPGKGLEWLGVMWRGGSTDYNAAFMSRLNITKDNSKRQVFFKMNSLQADDTAIYYCAKSMITTGFVMDSWGQGTSVTVSSGGGGSGGGGSGGGGSGGGGSGGGGSGGGGSDIQLTQSPSSFSVSLGDRVTITCKASEDIYNRLTWYQQKPGNAPRLLISGATSLETGVPSRFSGSGSGKDYTLSITSLQTEDVATYYCQQYWSNPYTFGGGTKLEIRGGGGSGGGGSGGGGSGGGGSHVQLVESGGGLVQPGGSLRLSCAASGFSLTDYGVHWVRQAPGKGLEWLGVIWSGGGTAYNTALISRFTISRDNSKNTLYLQMNSLRAEDTAVYYCARRGSYPYNYFDAWGCGTLVTVSSGGGGSGGGGSGGGGSGGGGSGGGGSGGGGSQAVVTQEPSLTVSPGGTVTLTCGSSTGAVTASNYANWVQQKPGQCPRGLIGGHNNRPPGVPARFSGSLLGGKAALTLLGAQPEDEAEYYCALWYSDHWVIGGGTKLTVLGTPLGDTTHTSGKPLDGEYFTLQIRGRERFEMFRELNEALELKDAQAGKEPGGSGGAPHHHHHH	~0.06 µg/mL	~0.05 µg/mL	7.4 nM	0.0012 s⁻¹	160000 M⁻¹ s⁻¹					
8DC-2 (anti-CD38 scFv-(G4S)4-huC825 anti DOTA scFv-linker-P53-linker-His tag) (bispecific antibody, SADA construct with VL7 and VH10 (published huAT13/5 of Ellis et al.)) QVQLQESGPGLVRPSQTLSLTCTVSGFTFTSYGVHWVRQPPGRGLEWIGVMWRGGSTDYNAAFMSRVTMLVDTSKNQFSLRLSSVTAADTAVYYCAKSMITTGFVMDSWGQGSLVTVSSGGGGSGGGGSGGGGSGGGGSGGGGSGGGGSDIQMTQSPSSLSASVGDRVTITCKASEDIYNRLTWYQQKPGKAPKLLISGATSLETGVPSRFSGSGSGTDFTFTISSLQPEDIATYYCQQYWSNPYTFGQGTKVEIKGGGGSGGGGSGGGGSGGGGSHVQLVESGGGLVQPGGSLRLSCAASGFSLTDYGVHWVRQAPGKGLEWLGVIWSGGGTAYNTALISRFTISRDNSKNTLYLQMNSLRAEDTAVYYCARRGSYPYNYFDAWGCGTLVTVSSGGGGSGGGGSGGGGSGGGGSGGGGSGGGGSQAVVTQEPSLTVSPGGTVTLTCGSSTGAVTASNYANWVQQKPGQCPRGLIGGHNNRPPGVPARFSGSLLGGKAALTLLGAQPEDEAEYYCALWYSDHWVIGGGTKLTVLGTPLGDTTHTSGKPLDGEYFTLQIRGRERFEMFRELNEALELKDAQAGKEPGGSGGAPHHHHHH				0.001 s⁻¹	6400 M⁻¹ s⁻¹	163 nM				
8DC-3 (anti-CD38 scFv-(G4S)4-huC825 anti DOTA scFv-linker-P53-linker-His tag) (bispecific antibody, SADA construct with VL5 and VH8) QVQLQESGPGLVKPSETLSLTCTVSGFSLTSYGVHWVRQPPGKGLEWIGVMWRGGSTDYNAAFKSRVTISKDNSKNQVSLKLSSVTAADTAVYYCAKSMITTGFVMDSWGQGTLVTVSSGGGGSGGGGSGGGGSGGGGSGGGGSGGGGSDIQLTQSPSSLSASVGDRVTITCKASEDIYNRLTWYQQKPGKAPKLLISGATSLETGVPSRFSGSGSGKDYTFTISSLQPEDFATYYCQQYWSNPYTFGQGTKLEIKGGGGSGGGGSGGGGSGGGGSHVQLVESGGGLVQPGGSLRLSCAASGFSLTDYGVHWVRQAPGKGLEWLGVIWSGGGTAYNTALISRFTISRDNSKNTLYLQMNSLRAEDTAVYYCARRGSYPYNYFDAWGCGTLVTVSSGGGGSGGGGSGGGGSGGGGSGGGGSGGGGSQAVVTQEPSLTVSPGGTVTLTCGSSTGAVTASNYANWVQQKPGQCPRGLIGGHNNRPPGVPARFSGSLLGGKAALTLLGAQPEDEAEYYCALWYSDHWVIGGGTKLTVLGTPLGDTTHTSGKPLDGEYFTLQIRGRERFEMFRELNEALELKDAQAGKEPGGSGGAPHHHHHH		~0.06 µg/mL		0.00085 s⁻¹	27000 M⁻¹ s⁻¹		31 nM			
8DC-5 (anti-CD38 scFv-(G4S)4-huC825 anti DOTA scFv-linker-P53-linker-His tag) (bispecific antibody, SADA construct with VL8 and VH11 (extra disulfide in the anti-CD38 scFv), VL-VH order) DIQLTQSPSSLSASVGDRVTITCKASEDIYNRLTWYQQKPGKAPKLLISGATSLETGVPSRFSGSGSGKDYTFTISSLQPEDFATYYCQQYWSNPYTFGCGTKLEIKGGGGSGGGGSGGGGSGGGGSGGGGSGGGGSQVQLQESGPGLVKPSETLSLTCTVSGFSLTSYGVHWVRQPPGKCLEWIGVMWRGGSTDYNAAFKSRVTISKDNSKNQVSLKLSSVTAADTAVYYCAKSMITTGFVMDSWGQGTLVTVSSGGGGSGGGGSGGGGSGGGGSHVQLVESGGGLVQPGGSLRLSCAASGFSLTDYGVHWVRQAPGKGLEWLGVIWSGGGTAYNTALISRFTISRDNSKNTLYLQMNSLRAEDTAVYYCARRGSYPYNYFDAWGCGTLVTVSSGGGGSGGGGSGGGGSGGGGSGGGGSGGGGSQAVVTQEPSLTVSPGGTVTLTCGSSTGAVTASNYANWVQQKPGQCPRGLIGGHNNRPPGVPARFSGSLLGGKAALTLLGAQPEDEAEYYCALWYSDHWVIGGGTKLTVLGTPLGDTTHTSGKPLDGEYFTLQIRGRERFEMFRELNEALELKDAQAGKEPGGSGGAPHHHHHH	~0.05 µg/mL	~0.07 µg/mL						0.17 nM	96000 M⁻¹ s⁻¹	0.214 nM
